Target: filamentous actin (F-actin) (not stated (human platelet or rabbit muscle actin)) (UniProt P68135)
Assay: co-sedimentation; 0.5 µM NMY-2S1 incubated with different amounts of actin, 150,000 g for 1.5 h at room temperature; percent of NMY-2 S1 in the pellet fitted with a one-site specific binding model

Kd	Substance
2460 nM	NMY-2(R252A)S1 (NMY-2 S1 fragment R252A bound to MLC-4 and MLC-5) (from UniProt G5EBY3 1-874; Q09510 1-172; Q9XVI9 1-142) (complex)
660 nM	NMY-2(S250A)S1 (NMY-2 S1 fragment S250A bound to MLC-4 and MLC-5) (from UniProt G5EBY3 1-874; Q09510 1-172; Q9XVI9 1-142) (complex)
62 nM	NMY-2(S251A)S1 (NMY-2 S1 fragment S251A bound to MLC-4 and MLC-5) (from UniProt G5EBY3 1-874; Q09510 1-172; Q9XVI9 1-142) (complex)
660 nM	wild-type NMY-2S1 (NMY-2 S1 fragment bound to MLC-4 and MLC-5) (from UniProt G5EBY3 1-874; Q09510 1-172; Q9XVI9 1-142) (complex)

Reference: paper PMC6857588
